We go through 2 molecules from patent US6458590 (US Dept. of Health and Human Services, dated 2002).

In assay [1] the target is T1, αvβ3 integrin on human coronary artery smooth muscle cells (CASMCs) (human, UniProt P06756 31-1048; P05106 27-788).
T1 construct: whole, on cells; Endogenous receptor on sub-confluent cultured human CASMCs (Clonetics); It was identified as the ~300 kD crosslinked band by immunoprecipitation with an αvβ3 integrin antibody; also called approximately 300 kD cell surface protein on CASMCs
Description: 125I-OPN binding to sub-confluent CASMCs, displaced by unlabeled OPN, 37 °C 3 h; Scatchard analysis (LIGAND program).
Description: The radioactivity was measured by gamma counter and the specific binding was calculated by subtracting the non-specific binding from the total binding.

Assay [2] deals with T1, αvβ3 integrin on human coronary artery …. As to the kind of experiment: competition with 125I-OPN in affinity crosslinking on CASMCs; GRGDS at 1 µM.
Description: After washing, the cells were incubated with 0.20 mM DSS in 1 ml HBSS, pH 7.6 at 37° C. for 30 min. The cells were scraped, collected by centrifugation and lysed in 40 µl of 1% Triton X-100 solution containing 1 mM PMSF, 20 µg/ml leupeptin and 2 mM EDTA.

T1 sequence (P06756 31-1048, chain 1 of 2): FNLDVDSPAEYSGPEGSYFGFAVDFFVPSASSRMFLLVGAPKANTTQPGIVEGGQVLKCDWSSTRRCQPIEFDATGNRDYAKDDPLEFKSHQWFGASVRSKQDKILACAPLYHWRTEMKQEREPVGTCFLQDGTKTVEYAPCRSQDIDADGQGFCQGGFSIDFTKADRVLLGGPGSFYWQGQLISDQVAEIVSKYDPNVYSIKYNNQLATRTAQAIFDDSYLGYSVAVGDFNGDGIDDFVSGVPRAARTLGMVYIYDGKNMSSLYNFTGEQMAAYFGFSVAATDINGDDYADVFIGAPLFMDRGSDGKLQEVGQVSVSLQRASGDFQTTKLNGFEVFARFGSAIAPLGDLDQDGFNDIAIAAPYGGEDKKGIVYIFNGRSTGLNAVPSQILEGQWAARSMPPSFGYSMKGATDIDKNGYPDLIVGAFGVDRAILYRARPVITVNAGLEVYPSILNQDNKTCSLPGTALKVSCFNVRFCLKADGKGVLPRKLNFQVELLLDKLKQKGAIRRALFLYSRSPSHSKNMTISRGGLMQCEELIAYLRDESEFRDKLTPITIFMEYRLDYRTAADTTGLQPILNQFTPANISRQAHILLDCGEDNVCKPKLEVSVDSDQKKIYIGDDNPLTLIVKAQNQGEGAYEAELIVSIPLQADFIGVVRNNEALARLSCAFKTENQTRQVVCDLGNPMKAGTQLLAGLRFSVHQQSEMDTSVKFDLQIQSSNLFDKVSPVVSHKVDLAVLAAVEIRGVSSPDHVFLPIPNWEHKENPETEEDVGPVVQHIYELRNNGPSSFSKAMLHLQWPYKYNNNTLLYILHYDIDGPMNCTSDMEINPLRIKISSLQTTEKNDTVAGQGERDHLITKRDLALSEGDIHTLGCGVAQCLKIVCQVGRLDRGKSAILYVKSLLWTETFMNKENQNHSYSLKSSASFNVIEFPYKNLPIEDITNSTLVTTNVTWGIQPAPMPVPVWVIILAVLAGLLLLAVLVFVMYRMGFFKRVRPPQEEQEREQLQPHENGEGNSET
T1 sequence (P05106 27-788, chain 2 of 2): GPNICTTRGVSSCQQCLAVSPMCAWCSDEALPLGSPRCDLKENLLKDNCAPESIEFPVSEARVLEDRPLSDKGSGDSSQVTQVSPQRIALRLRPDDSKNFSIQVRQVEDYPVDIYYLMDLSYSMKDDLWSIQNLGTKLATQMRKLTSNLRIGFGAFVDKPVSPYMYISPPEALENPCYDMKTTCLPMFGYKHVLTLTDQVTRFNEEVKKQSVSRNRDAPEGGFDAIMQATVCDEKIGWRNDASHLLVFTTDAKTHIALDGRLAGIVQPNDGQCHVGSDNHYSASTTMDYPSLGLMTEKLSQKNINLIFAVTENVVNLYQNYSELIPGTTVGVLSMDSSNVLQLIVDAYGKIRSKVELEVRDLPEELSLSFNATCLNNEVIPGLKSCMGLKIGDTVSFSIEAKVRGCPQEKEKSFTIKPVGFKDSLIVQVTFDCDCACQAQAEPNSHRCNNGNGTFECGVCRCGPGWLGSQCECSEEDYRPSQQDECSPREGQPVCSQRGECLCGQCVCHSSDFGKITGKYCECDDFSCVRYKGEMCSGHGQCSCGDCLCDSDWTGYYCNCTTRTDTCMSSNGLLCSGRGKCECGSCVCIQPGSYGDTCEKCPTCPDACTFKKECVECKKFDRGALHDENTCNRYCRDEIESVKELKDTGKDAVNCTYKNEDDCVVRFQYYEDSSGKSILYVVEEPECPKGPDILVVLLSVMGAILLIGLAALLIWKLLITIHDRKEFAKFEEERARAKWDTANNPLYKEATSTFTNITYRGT

B1: human osteopontin (purified hOPN) (ligand)
chain: not shown
modifications: radioiodinated (125I, Chloramine-T method) when used as tracer; labelled residues not stated; the natural protein is described as a glycosylated phosphoprotein
Molecule B1 displayed a Kd in assay [1] of 1 nM. In other words, the single-digit nanomolar range.

B2: Gly-Arg-Gly-Asp-Ser (GRGDS) oligopeptide (peptide)
peptide: GRGDS
notes: also called GRGDS peptide
For the molecule B2, the binding result in assay [2] is listed as “binds”.
